Where no end group is shown, it is not given here. [ ]: non-standard residue; d: D form.

The results in this text go back to patent US20090149389A1 (PURDUE RESEARCH FOUNDATION, published 2009).

In one assay the target is T1, MAPKAP kinase II (MK2) (UniProt P49137 1-400, limits assumed). The experiment in a line: cell-based or functional assay.
T1 sequence (P49137 whole entry): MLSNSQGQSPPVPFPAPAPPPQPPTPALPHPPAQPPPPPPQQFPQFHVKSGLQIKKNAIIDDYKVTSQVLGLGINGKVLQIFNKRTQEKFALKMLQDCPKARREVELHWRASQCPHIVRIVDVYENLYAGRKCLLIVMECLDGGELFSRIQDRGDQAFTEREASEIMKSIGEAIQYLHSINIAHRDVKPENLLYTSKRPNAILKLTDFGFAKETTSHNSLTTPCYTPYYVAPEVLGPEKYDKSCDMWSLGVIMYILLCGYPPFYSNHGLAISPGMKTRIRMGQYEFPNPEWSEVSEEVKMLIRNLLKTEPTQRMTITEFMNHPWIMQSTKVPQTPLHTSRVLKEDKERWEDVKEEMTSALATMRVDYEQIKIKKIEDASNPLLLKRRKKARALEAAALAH
As for WLRRIKAWLRRIKALARQLAVA, the “% of Blank Reaction Velocity at an Inhibitor Concentration of 6.25pN” value was found to be 3.3%. Take WLRRIKAWLRRIKALARQLGVA: the “% of Blank Reaction Velocity at an Inhibitor Concentration of 6.25pN” value amounted to 3.9%.

On to WLRRIKAWLRRIKALNRQLAVA, for which the “% of Blank Reaction Velocity at an Inhibitor Concentration of 6.25pN” value is -2.1%. On to WLRRIKAWLRRIKKKALARQLAVA, for which the “% of Blank Reaction Velocity at an Inhibitor Concentration of 6.25pN” value was 1%.

The target in another assay is T1, MAPKAP kinase II (MK2). The experiment in a line: cell-based or functional assay. This is another data set of the same source.
As to KALNRQLGVA, the “% of … [SEQ ID NO: 124] Reaction Velocity at an Inhibitor Concentration of 100 µM” value came out at 100%. In the case of KALNRQLAVAA, the “% of … [SEQ ID NO: 124] Reaction Velocity at an Inhibitor Concentration of 100 µM” value was 72%. The same measure, in the same setting: the value for KALNRQAGVAA was 118%; that for WLKKIKAWLKKIKALNRQLGVVA was -32%; that for KAANRQLGVAA was 152%. As to KALNRALGVAA, the “% of … [SEQ ID NO: 124] Reaction Velocity at an Inhibitor Concentration of 100 µM” value was found to be 358%. For KALNRQLGVAA, the “% of … [SEQ ID NO: 124] Reaction Velocity at an Inhibitor Concentration of 100 µM” value came to 100%. Turning to KALNAQLGVAA, the “% of … [SEQ ID NO: 124] Reaction Velocity at an Inhibitor Concentration of 100 µM” value came out at 358%. Regarding KALNRQ[dL]GVAA [KALNRQdLGVAA], the “% of … [SEQ ID NO: 124] Reaction Velocity at an Inhibitor Concentration of 100 µM” value was found to be 357%. As to KKKALNRQLGVAA, the “% of … [SEQ ID NO: 124] Reaction Velocity at an Inhibitor Concentration of 100 µM” value worked out at 91%. Take KALNRQLGAAA: the “% of … [SEQ ID NO: 124] Reaction Velocity at an Inhibitor Concentration of 100 µM” value stood at 373%.
